According to patent publication US20230057263A1 (CYTOMX THERAPEUTICS, published 2023):
No end group written: not given here. *: point of attachment. Biotin = O=C1N[C@H]2[C@H](CS[C@H]2CCCCC(=O)*)N1; code X = not defined here; linker = not defined here

Experiments:
B X EEMGGITQTPYKVSI [1] = molecular target: T1, B X EEMGGITQTPYKVSI (reading uncertain); experiment: Luminex bead assay [Cont.]
T1 construct: row 6 of the chart; also called biotinylated 15-mer, residues 5-19
T1 peptide: {Biotin-code X}-EEMGGITQTPYKVSI
Description: (§1) A set of experiments was performed to map the epitope recognized by the anti-CD3ε antibodies. In these experiments, the anti-CD3ε antibodies were assessed for binding to a collection of overlapping 15-mer peptides spanning amino acids 1-27 of human CD3ε protein using a Luminex bead assay. Control CD3 proteins, control peptides, or the test peptides were immobilized on Luminex beads and incubated with a panel of anti-CD3 antibodies. Binding of the anti-CD3 antibodies to the peptide/protein immobilized on the Luminex bead was detected by R-Phycoerythrin conjugated secondary antibody.
(§2) Recombinant CD3 proteins (human CD3d/e heterodimer and cynomolgus CD3-epsilon (Sinobiological)) and control peptides (#p1, #p2, and #p3) were conjugated to Luminex beads using standard EDC/Sulfo-NHS chemistry. The 15-mer test peptides were synthesized as biotinylated peptides at JPT Peptide Technologies Gmbh and were immobilized on streptavidin-conjugated Luminex beads that were made using standard EDC/Sulfo-NHS chemistry and streptavidin (Invitrogen Cat. No. 434301 lot 1626028A). The Luminex beads with immobilized peptides or reagents were incubated with 50 ul of a panel of anti-CD3 antibodies (1 ug/ml) for one hour at room temperature, washed two times, incubated with mixture of anti-human and anti-mouse IgG-RPE (Jackson Immunoresearch 109-116-097 and Southern Biotech 1030-09, respectively) for 30 mins at RT, washed three times, and analyzed in the Luminex instrument to assess the level of bound anti-CD3 antibodies.

B X GNEEMGGITQTPYKV [2] = molecular target: T2, B X GNEEMGGITQTPYKV (reading uncertain); experiment: Luminex bead assay [Cont.]
T2 construct: row 4 of the chart; also called biotinylated 15-mer, residues 3-17
T2 peptide: {Biotin-code X}-GNEEMGGITQTPYKV
Description: as §1, §2

B X GITQTPYKVSISGTT = molecular target: T3, B X GITQTPYKVSISGTT (reading uncertain); experiment: Luminex bead assay [Cont.]
T3 construct: row 10 of the chart; also called biotinylated 15-mer, residues 9-23
T3 peptide: {Biotin-code X}-GITQTPYKVSISGTT
Description: as §1, §2

B X QAGNEEMGGITQTP = molecular target: T4, B X QAGNEEMGGITQTP (reading uncertain); experiment: Luminex bead assay [Cont.]
T4 construct: row 16 of the chart; also called alanine-scan peptide D2A
T4 peptide: {Biotin-code X}-QAGNEEMGGITQTP
Description: as §1, §2

B X ITQTPYKVSISGTTV [3] = molecular target: T5, B X ITQTPYKVSISGTTV (reading uncertain); experiment: Luminex bead assay [Cont.]
T5 construct: row 11 of the chart; also called biotinylated 15-mer, residues 10-24
T5 peptide: {Biotin-code X}-ITQTPYKVSISGTTV
Description: as §1, §2

B X TQTPYKVSISGTTVI = molecular target: T6, B X TQTPYKVSISGTTVI (reading uncertain); experiment: Luminex bead assay [Cont.]
T6 construct: row 12 of the chart; also called biotinylated 15-mer, residues 11-25
T6 peptide: {Biotin-code X}-TQTPYKVSISGTTVI
Description: as §1, §2

B X QTPYKVSISGTTVIL = molecular target: T7, B X QTPYKVSISGTTVIL (reading uncertain); experiment: Luminex bead assay [Cont.]
T7 construct: row 13 of the chart; also called biotinylated 15-mer, residues 12-26
T7 peptide: {Biotin-code X}-QTPYKVSISGTTVIL
Description: as §1, §2

B X EMGGITQTPYKVSIS [4] = molecular target: T8, B X EMGGITQTPYKVSIS (reading uncertain); experiment: Luminex bead assay [Cont.]
T8 construct: row 7 of the chart; also called biotinylated 15-mer, residues 6-20
T8 peptide: {Biotin-code X}-EMGGITQTPYKVSIS
Description: as §1, §2

B X MGGITQTPYKVSISG [5] = molecular target: T9, B X MGGITQTPYKVSISG (reading uncertain); experiment: Luminex bead assay [Cont.]
T9 construct: row 8 of the chart; also called biotinylated 15-mer, residues 7-21
T9 peptide: {Biotin-code X}-MGGITQTPYKVSISG
Description: as §1, §2

B X NEEMGGITQTPYKVS = molecular target: T10, B X NEEMGGITQTPYKVS (reading uncertain); experiment: Luminex bead assay, 1 ug/ml antibody [Cont.]
T10 construct: row 5 of the chart; also called biotinylated 15-mer, residues 4-18
T10 peptide: {Biotin-code X}-NEEMGGITQTPYKVS
Description: as §1, §2

B X EEMGGITQTPYKVSI [6] = molecular target: T1, B X EEMGGITQTPYKVSI; experiment: Luminex bead assay, 1 ug/ml antibody [Cont.]
Description: as §1, §2

[7] = molecular target: T11, (H2N-KEFSELEQSGYYVCYPRGSNPEDA-OH) vCD3e #p3-BSA (conjugated to BSA); experiment: Luminex bead assay, 1 ug/ml antibody [Cont.]
T11 construct: also called control peptide #p3
T11 peptide: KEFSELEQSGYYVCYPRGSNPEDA
Description: as §1, §2

BSA alone = molecular target: T12, BSA alone (bovine, UniProt P02769); experiment: Luminex bead assay, 1 ug/ml antibody [Cont.]
T12 construct: carrier protein without peptide
T12 sequence (P02769 25-607 limits assumed): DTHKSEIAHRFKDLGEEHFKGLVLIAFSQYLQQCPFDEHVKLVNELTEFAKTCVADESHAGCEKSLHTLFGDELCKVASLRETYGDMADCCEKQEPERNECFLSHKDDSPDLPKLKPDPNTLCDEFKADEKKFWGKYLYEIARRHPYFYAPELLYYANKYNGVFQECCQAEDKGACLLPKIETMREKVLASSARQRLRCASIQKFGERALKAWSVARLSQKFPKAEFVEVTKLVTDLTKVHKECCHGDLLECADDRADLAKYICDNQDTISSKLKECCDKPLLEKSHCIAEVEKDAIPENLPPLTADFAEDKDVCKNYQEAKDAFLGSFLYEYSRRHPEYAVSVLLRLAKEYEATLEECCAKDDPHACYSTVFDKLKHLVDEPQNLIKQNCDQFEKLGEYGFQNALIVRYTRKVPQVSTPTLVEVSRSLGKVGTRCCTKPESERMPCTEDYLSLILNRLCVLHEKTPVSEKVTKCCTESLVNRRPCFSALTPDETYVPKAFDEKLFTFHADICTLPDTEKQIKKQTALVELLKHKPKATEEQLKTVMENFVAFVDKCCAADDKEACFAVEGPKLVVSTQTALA
Description: as §1, §2

B X GNEEMGGITQTPYKV [8] = molecular target: T2, B X GNEEMGGITQTPYKV; experiment: Luminex bead assay, 1 ug/ml antibody [Cont.]
Description: as §1, §2

B X QDGNEEAGGITQTP = molecular target: T13, B X QDGNEEAGGITQTP (reading uncertain); experiment: Luminex bead assay, 1 ug/ml antibody [Cont.]
T13 construct: row 21 of the chart; 14 residues; also called alanine-scan peptide M7A
T13 peptide: {Biotin-code X}-QDGNEEAGGITQTP
Description: as §1, §2

B X ITQTPYKVSISGTTV [9] = molecular target: T5, B X ITQTPYKVSISGTTV; experiment: Luminex bead assay, 1 ug/ml antibody [Cont.]
Description: as §1, §2

B X TPYKVSISGTTVILT = molecular target: T14, B X TPYKVSISGTTVILT (reading uncertain); experiment: Luminex bead assay, 1 ug/ml antibody [Cont.]
T14 construct: row 14 of the chart; also called biotinylated 15-mer, residues 13-27
T14 peptide: {Biotin-code X}-TPYKVSISGTTVILT
Description: as §1, §2

[10] = molecular target: T15, biotinylated 15-mer peptide corresponding to the CD3ε N-terminus (human, UniProt P07766 22-36, limits assumed, not fully specified; reading uncertain); experiment: Luminex bead assay, 1 ug/ml antibody [Cont.]
T15 construct: domain: N-terminal 15-mer; Immobilised on streptavidin-conjugated Luminex beads; The text says 'peptides' in the plural, so more than one overlapping N-terminal 15-mer may be meant; also called N-terminal 15-mer; biotinylated N-terminal 15-mer
T15 peptide (looked up): {Biotin-linker}-QDGNEEMGGITQTPY
Description: as §1, §2

vCD3e #p1 peptide = molecular target: T16, vCD3e #p1 peptide; experiment: Luminex bead assay, 1 ug/ml antibody [Cont.]
T16 construct: also called control peptide #p1
Description: as §1, §2

B X QDGNEAMGGITQTP = molecular target: T17, B X QDGNEAMGGITQTP (reading uncertain); experiment: Luminex bead assay, 1 ug/ml antibody [Cont.]
T17 construct: row 20 of the chart; 14 residues; also called alanine-scan peptide E6A
T17 peptide: {Biotin-code X}-QDGNEAMGGITQTP
Description: as §1, §2

B X EMGGITQTPYKVSIS [11] = molecular target: T8, B X EMGGITQTPYKVSIS; experiment: Luminex bead assay, 1 ug/ml antibody [Cont.]
Description: as §1, §2

B X MGGITQTPYKVSISG [12] = molecular target: T9, B X MGGITQTPYKVSISG; experiment: Luminex bead assay, 1 ug/ml antibody [Cont.]
Description: as §1, §2

binding result (B X EEMGGITQTPYKVSI [1]): no binding (tested: 1 ug/ml)
binding result (B X GNEEMGGITQTPYKV [2]): no binding (tested: 1 ug/ml)
binding result (B X GITQTPYKVSISGTT): no binding (tested: 1 ug/ml)
binding result (B X QAGNEEMGGITQTP): no binding (tested: 1 ug/ml)
binding result (B X ITQTPYKVSISGTTV [3]): no binding (tested: 1 ug/ml)
binding result (B X TQTPYKVSISGTTVI): no binding (tested: 1 ug/ml)
binding result (B X EMGGITQTPYKVSIS [4]): no binding (tested: 1 ug/ml)
binding result (B X MGGITQTPYKVSISG [5]): no binding (tested: 1 ug/ml)
Luminex signal (B X NEEMGGITQTPYKVS): 40.5
Luminex signal (B X EEMGGITQTPYKVSI [6]): 43
Luminex signal [7]: 473
Luminex signal (BSA alone): 420
Luminex signal (B X GNEEMGGITQTPYKV [8]): 44.5
Luminex signal (B X QDGNEEAGGITQTP): 2580
Luminex signal (B X ITQTPYKVSISGTTV [9]): 29.5
Luminex signal (B X TPYKVSISGTTVILT): 31
Luminex signal [10]: 3160
Luminex signal (vCD3e #p1 peptide): 20300
Luminex signal (B X QDGNEAMGGITQTP): 1480
Luminex signal (B X EMGGITQTPYKVSIS [11]): 44.5
Luminex signal (B X MGGITQTPYKVSISG [12]): 26.5
B1: 6d59 (antibody, V domains shown)
VH: QVHLVESGGGVVQPGRSLRLSCAASGFKFRSYGMHWVRQAPGKGLEWVAIIWYDGSKRYYADSVKGRFTISRDNSKNTLYLQMSSLRAEDTAVYYCARDLITGTTDYWGQGTLVTVSS
VL: DVVMTQSPLSLPVTLGQPASISCRSSRSLVYSDGNTHLIWFQQRPGQSPRRLIYRVSNRVSGVPDRFSGSGSGTDFTLKISRVEAEDVGVYYCLQGAHWPYTFGQGTKLEIKR
notes: also called 6d59.1; VCD3-6d59.1
binding result (B X QTPYKVSISGTTVIL): no binding (tested: 1 ug/ml)
